# Test results: PMC3107238
# Molecular target: plasma proteins (rat (endogenous in serum))
# Experiment: SEC
row,Substance,percent plasma protein binding [%]
1,L56A mutant of sTEM8 (from UniProt Q9H6X2 38-220) (domain or fragment),> 90
2,soluble vWA domain of tumor endothelium marker-8 (sTEM8) (from UniProt Q9H6X2 38-220) (domain or fragment),> 90
